Target: pooled human IgG (human IgG1,2,3 and 4)

Protein | Enzyme Activity Endpoint Assay (purified): Fab′2 | Enzyme Activity Endpoint Assay (purified): Fc | Enzyme Activity Endpoint Assay (purified): IgG | Enzyme Activity Endpoint Assay (purified): scIgG | Enzyme Activity Endpoint Assay (purified): Fab'2
PRT-337 (protein) MTITSVWTKGVTPPTPEDFRKNNEDVLHAPYLANQGWYDITKAFDGKDNLLCGAATAGNMLHWWFDQNKEEIERYLKKHPEKQKIIFNNQELFDVKAAIDTKDSQTNSKLFNYFRDKAFPNLSARQLGVMPDLVLDMFINGYYLNLGKTQSTDVNRPYQDKDKRGGIFDAVFTRGDQTTLLTARHDLKNKGLNEISDLIKQELTEGKALALSHTYANVSINHVINLWGADFDAEGNLEAIYVTDSDANASIGMKKYFVGRNAHGKVAISAKKIEGDNIGAQVLGLFTLSTGQDIWQKLS | 0 ng/µL | 74 ng/µL | 38 ng/µL | 259 ng/µL | 
PRT-351 (protein) MSQTEDSESLQRLRDIEDFQAEKKMQNVVYTKWLDGVDVKDHDFRKIVDGNSAYYATPLLNGRGFYDINKDFNRDSDKCAAAVAANMFHYWLDINRDNVDRFLRQNPEKHGIIELPDGQLKLSDFLNTYESDHGYRDKSKLFDFISENFNGPVWTDKLLDNYINGYAYNYKYGRTIEDPTKNTSKINFFKEVFNEKILTNNHSIRNQNEFSVLLIEALYTGKAIGLSYGPAGLRHSLGHIISVWGADLDADGNVVAIYVTDSDDKKLTIGDERVGLKRYKISTDDENRLRLTAYEETHNTGGQIRGLWTLDTGKYAWADYFDKTEQTGTDQAEQ |  | 191 ng/µL | 86 ng/µL | 638 ng/µL | 37 ng/µL
PRT-353 (protein) MSQTEDSESLQRLRDIEDFQAEKEMQNVVYTKWLDGVDVKDHDFRKIVDGNSAYYATPLLNGRGWYDINKDFNRDSDKCAAAVAANMFHYWLDINRDNVDRFLRQNPEKHGIIELPDGQLKLSDFLNTYESDHGYRDKSKLFDFISENFNGPVWTDKLLDNYINGYAYNSKYGRTIEDPTKNTSKINFFKEVFNEKILTNNHSIRNQNEFSVLLIEALYTGKAIGLSYGPAGLRHGLGHIISVWGADLDADGNVVAIYVTDSDDKKLTIGDERVGLKRYKISTDDENRLRLTAYEETHNTGGQVRGLWTLDTGKYAWADYFDKTEQTGTDQAEQ | 101 ng/µL | 259 ng/µL | 189 ng/µL | 767 ng/µL | 
PRT-360 (protein) MSQTEDSESLQRLRDIEDFQAEKKDQNVVYTKWLDGVDVKDHDFRKIVDGNSAYYATPLLNGRGWYDINKDFNRDSDKCAAAVAANMFHYWLDRNRDNVDRFLRQNPEKHGIIELPDGQLKLSDFLNTYESDDGYRDKSKLFDFISENFNGPVWTDKLLDNYINGYAYNYKYGRTIEDPTKNTSKINFFKEVFNEKILTNNHSIRNQNEFSVLLIEALYTGKAIGLSYGPAGLRHSLGHIISVWGADLDADGNVVAIYVTDSDDKKLTIGDERVGLKRYKISTDDEGRLRLTAYEETHNTGGQVRGLWTLDTGKQAWADYFDKTEQTGTDQAEQ | 89 ng/µL | 241 ng/µL | 191 ng/µL | 684 ng/µL | 
PRT-368 (protein) MSQTEDSESLQRLRDIEDFQAEKKDQNVVYTKWLDGVDVKDHDFRKIVDGNIAYYATPLLNGRGWYDINKDFNRDNDKCAAAVAANMFHYWLDRNRDNVDRFLRQNPEKHGIIELPDGQLKLSDFLNTYESDDGYRDKSKLFDFISENFNGPVWTDKLLDNYINGYAYNYKYGRTIEDSTKNTSKINFFKEVFNEKILTNNHSIRNQNEFSVLLIEALYTGKAIGLSYGPAGLRHSLGHIISVWGADLDADGNVVAIYVTDSDDKKLTIGDERVGLKRYKISTDDEGRLRLTAYEETHNTGGQVRGLWTLDTGKQAWADYFDKTEQTGTDQAEQ | 0 ng/µL | 3 ng/µL | 0 ng/µL | 0 ng/µL | 
PRT-361 (protein) MSQTEDSESLQRLRDIEDFQAEKKKQNVVYTKWLDGVDVKDHDFRKIVDGNSAYYATPLLNGRGFYDINKDFNRDSDKCAAAVAANMFHYWLDRNRDNVDRFLRQNPEKHGIIELPDGQLKLSDFLNTYESDDGYRDKSKLFDFISENFNGPVWTDKLLDNYINGYAYNYKYGRTIEDPTKNTSKINFFKEVFNEKILTNNHSIRNQNEFSVLLIEALYTGKAIGLSYGPAGLRHSLGHIISVWGADLDADGNVVAIYVTDSDDKKLTIGDERVGLKRYKISTDDEGRLRLTAYEETHNTGGQIRGLWTLDTGKQAWADYFDKTEQTGTDQAEQ | 86 ng/µL | 243 ng/µL | 130 ng/µL | 753 ng/µL | 
PRT-352 (protein) MSQTEDSESLQRLRDIEDFQAEKKMQNVVYTKWLDGVDVKDHDFRKIVDGNSAYYATPLLNGRGFYDINKDFNRDSDKCAAAVAANMFHYWLDINRDNVDRFLRQNPEKHGIIELPDGQLKLSDFLNTYESDHGYRDKSKLFDFISENFNGPVWTDKLLDNYINGYAYNSKYGRTIEDPTKNTSKINFFKEVFNEKILTNNHSIRNQNEFSVLLIEALYTGKAIGLSYGPAGLRHGLGHIISVWGADLDADGNVVAIYVTDSDDKKLTIGDERVGLKRYKISTDDENRLRLTAYEETHNTGGQIRGLWTLDTGKYAWADYFDKTEQTGTDQAEQ | 229 ng/µL | 302 ng/µL | 281 ng/µL | 599 ng/µL | 
PRT-359 (protein) MSQTEDSESLQRLRDIEDFQAEKKDQNVVYTKWLDGVDVKDHDFRKIVDGNIAYYATPLLNGRGLYDINKDFNRDSDKCAAAVAANMFHYWLDRNRDNVDRFLRQNPEKHGIIELPDGQLKLSDFLNTYESDDGYRDKSKLFDFISENFNGPVWTDKLLDNYINGYAYNYKYGRTIEDPTKNTSKINFFKEVFNEKILTNNHSIRNQNELSVLLSEALYTGKAIGLSYGPAGLRHSLGHIISVWGADLDADGNVVAIYVTDSDDKKLTIGDERVGLKRYKISTDDEGRLRLTAYEETHNTGGQVRGLWTLDTGKQAWADYFDKTEQTGTDQAEQ |  | 340 ng/µL | 202 ng/µL | 677 ng/µL | 260 ng/µL
PRT-367 (protein) MSQTEDSESLQRLRDIEDFQAEKEKQNVVYTKWLDGVDVKDHDFRKIVDGNSAYYATPLLNGRGWYDINKDFNRDNDKCAAAVAANMFHYWLDRNRDNVDRFLRQNPEKHGIIELPDGQLKLSDFLNTYESDDGYRDKSKLFDFISNNFNGPVWTDKLLDNYINGYAYNYKYGRTIEDSTKNTSKINFFKEVFNEKILTNNHSIRNQNEFSVLLSEALYTGKAIGLSYGPAGLRHSLGHIISVWGADLDADGNVVAIYVTDSDDKKLTIGDERVGLKRYKISTDDEGRLRLTAYEETHNTGGQVRGLWTLDTGKQAWADYFDKTEQTGTDQAEQ |  | 361 ng/µL | 100 ng/µL | 518 ng/µL | 351 ng/µL
PRT-335 (protein) MTITSVWTKGVTPPTPEDFRENNEDVLHAPYVANQGWYDITKTFDGKDNLLCGAATAGNMLHWWFDQNKEEIERYLKKHPEKQKIIFGNQELFDVKAAIDTKDSQTNSKLFDYFRDKAFPGLSARQLGVFPDLVLDMFINGYYLNLGKTQSTDVNRPYQDKDKRGGIFDAVFTRGVQTTLLTARHDLKNKGLNEISDLIKQELTEGKALALSHTYANVRINHVINLWGADFDAEGELIAIYVTDSDANPSIGMKKYFVGRNANGKVAISAKKIEGDNIGAQVLGLFTLSTGQDQWQKLS |  | 154 ng/µL | 74 ng/µL | 514 ng/µL | 38 ng/µL
PRT-336 (protein) MTITSVWTKGVTPPTPEDFRENNEDVLHAPYVANQGWYDITKTFDGKDNLLCGAATAGNMLHWWFDQNKEEIERYLKKHPEKQKIIFNNQELFDVKAAIDTKDSQTNSKLFDYFRDKAFPGLSARQLGVFPDLVLDMFINGYYLNLGKTQSTDVNRPYQDKDKRGGIFDAVFTRGVQTTLLTARHDLKNKGLNEISDLIKQELTEGKALALSHTYANVRINHVINLWGADFDAEGELIAIYVTDSDANPSIGMKKYFVGRNANGKVAISAKKIEGDNIGAQVLGLFTLSTGQDIWQKLS |  | 264 ng/µL | 370 ng/µL | 965 ng/µL | 50 ng/µL
PRT-344 (protein) MTITSVWTKGVTPPTPEDFRENNEDVLHAPYLANQGWYDITKAFDGKDNLLCGAATAGNMLHWWFDQNKEEIERYLKKHPEKQKIIFGNQELFDVKAAIDTKDSQTNSKLFDYFRDKAFPNLSARQLGVMPDLVLDMFINGYYLNLGKTQSTDVNRPYQDKDKRGGIFDAVFTRGDQTTLLTARHDLKNKGLNEISDLIKQELTEGKALALSHTYANVSINHVINLWGADFDAEGELEAIYVTDSDANPSIGMKKYFVGRNAHGKVAISAKKIEGDNIGAQVLGLFTLSTGQDQWQKLS | 562 ng/µL | 335 ng/µL | 0 ng/µL | 218 ng/µL | 
PRT-343 (protein) MTITSVWTKGVTPPTPEDFRENNEDVLHAPYLANQGWYDITKAFDGKDNLLCGAATAGNMLHWWFDQNKEEIERYLKKHPEKQKIIFGNQELFDVKAAIDTKDSQTNSKLFDYFRDKAFPNLSARQLGVMPDLVLDMFINGYYLNLGKTQSTDVNRPYQDKDKRGGIFDAVFTRGDQTTLLTARHDLKNKGLNEISDLIKQELTEGKALALSHTYANVSINHVINLWGADFDAEGELEAIYVTDSDANPSIGMKKYFVGRNAHGKVAISAKKIEGDNIGAQVLGLFTLSTGQDIWQKLS |  | 266 ng/µL | 129 ng/µL | 682 ng/µL | 154 ng/µL
PRT-345 (protein) MTITSVWTKGVTPPTPEDFRENNEDVLHAPYLANQGWYDITKAFDGKDNLLCGAATAGNMLHWWFDQNKEEIERYLKKHPEKQKIIFNNQELFDVKAAIDTKDSQTNSKLFDYFRDKAFPNLSARQLGVMPDLVLDMFINGYYLNLGKTQSTDVNRPYQDKDKRGGIFDAVFTRGDQTTLLTARHDLKNKGLNEISDLIKQELTEGKALALSHTYANVSINHVINLWGADFDAEGELEAIYVTDSDANPSIGMKKYFVGRNAHGKVAISAKKIEGDNIGAQVLGLFTLSTGQDIWQKLS | 61 ng/µL | 248 ng/µL | 123 ng/µL | 772 ng/µL | 
